Data: patent EP2083016A1 (U.S. Medical Research Institute of Infectious Diseases, dated 2009)

What was measured:
[1] = target: T1, HLA-DR1 (DR1 alpha/beta; DRA and DRB1*0101) on the cell surface (human); experiment: flow cytometry on HLA-DR-bearing cells, FITC rabbit anti-TSST-1
[2] = target: T1, HLA-DR1 (DR1 alpha/beta; DRA and …); experiment: flow cytometry on human MHC class II expressing cells
[3] = target: T1, HLA-DR1 (DR1 alpha/beta; DRA and …); experiment: flow cytometry on HLA-DR-bearing cells, FITC rabbit anti-SpeA
[4] = target: T1, HLA-DR1 (DR1 alpha/beta; DRA and …); experiment: flow cytometry; toxin on cells bearing HLA-DR1

B1: toxic shock syndrome toxin-1 (TSST-1), wild type (ligand)
chain: STNDNIKDLLDWYSSGSDTFTNSEVLDNSLGSMRIKNTDGSISLIIFPSPYYSPAFTKGEKVDLNTKRTKKSQHTSEGTYIHFQISGVTNTEKLPTPIELPLKVKVHGKDSPLKYGPKFDKKQLAISTLDFEIRHQLTQIHGLYRSSDKTGGYWKITMNDGSTYQSDLSKKFEYNTEKPPINIDEIKTIEAEIN
[1]
  binding result: binds

B2: staphylococcal enterotoxin A (SEA), wild type (ligand)
chain: SEKSEEINEKDLRKKSELQGTALGNLKQIYYYNEKAKTENKESHDQFLQHTILFKGFFTDHSWYNDLLVDFDSKDIVDKYKGKKVDLYGAYYGYQCAGGTPNKTACMYGGVTLHDNNRLTEEKKVPINLWLDGKQNTVPLETVKTNKKNVTVQELDLQARRYLQEKYNLYNSDVFDGKVQRGLIVFHTSTEPSVNYDLFGAQGQYSNTLLRIYRDNKTINSENMHIDIYLYTS
[2]
  binding result: binds

B3: SpeA mutant L42A (ligand)
chain: QQDPDPSQLHRSSLVKNLQNIYFLYEGDPVTHENVKSVDQLASHDLIYNVSGPNYDKLKTELKNQEMATLFKDKNVDIYGVEYYHLCYLCENAERSACIYGGVTNHEGNHLEIPKKIVVKVSIDGIQSLSFDIETNKKMVTAQELDYKVRKYLTDNKQLYTNGPSKYETGYIKFIPKNKESFWFDFFPEPEFTQSKYLMIYKDNETLDSNTSQIEVYLTTK
[3]
  binding result: binds

B4: staphylococcal enterotoxin D (SED) (ligand)
chain: NENIDSVKEKELHKKSELSSTALNNMKHSYADKNPIIGENKSTGDQFLENTLLYKKFFTDLINFEDLLINFNSKEMAQHFKSKNVDVYPIRYSINCYGGEIDRTACTYGGVTPHEGNKLKERKKIPINLWINGVQKEVSLDKVQTDKKNVTVQELDAQARRYLQKDLKLYNNDTLGGKIQRGKIEFDSSDGSKVSYDLFDVKGDFPEKQLRIYSDNKTLSTEHLHIDIYLYEK
[4]
  binding result: binds
